Experimental data: US20240287172A1 (SCIRHOM, published 2024)
Residue numbers refer to the chain shown, from its start.

How the values were obtained:
hiR2-FL-H505A-T7 = molecular target: T1, hiR2-FL-H505A-T7 (human, UniProt Q6PJF5 1-856); assay: FACS on MEF-DKO cells expressing the variant, 3 µg/ml antibody
T1 sequence: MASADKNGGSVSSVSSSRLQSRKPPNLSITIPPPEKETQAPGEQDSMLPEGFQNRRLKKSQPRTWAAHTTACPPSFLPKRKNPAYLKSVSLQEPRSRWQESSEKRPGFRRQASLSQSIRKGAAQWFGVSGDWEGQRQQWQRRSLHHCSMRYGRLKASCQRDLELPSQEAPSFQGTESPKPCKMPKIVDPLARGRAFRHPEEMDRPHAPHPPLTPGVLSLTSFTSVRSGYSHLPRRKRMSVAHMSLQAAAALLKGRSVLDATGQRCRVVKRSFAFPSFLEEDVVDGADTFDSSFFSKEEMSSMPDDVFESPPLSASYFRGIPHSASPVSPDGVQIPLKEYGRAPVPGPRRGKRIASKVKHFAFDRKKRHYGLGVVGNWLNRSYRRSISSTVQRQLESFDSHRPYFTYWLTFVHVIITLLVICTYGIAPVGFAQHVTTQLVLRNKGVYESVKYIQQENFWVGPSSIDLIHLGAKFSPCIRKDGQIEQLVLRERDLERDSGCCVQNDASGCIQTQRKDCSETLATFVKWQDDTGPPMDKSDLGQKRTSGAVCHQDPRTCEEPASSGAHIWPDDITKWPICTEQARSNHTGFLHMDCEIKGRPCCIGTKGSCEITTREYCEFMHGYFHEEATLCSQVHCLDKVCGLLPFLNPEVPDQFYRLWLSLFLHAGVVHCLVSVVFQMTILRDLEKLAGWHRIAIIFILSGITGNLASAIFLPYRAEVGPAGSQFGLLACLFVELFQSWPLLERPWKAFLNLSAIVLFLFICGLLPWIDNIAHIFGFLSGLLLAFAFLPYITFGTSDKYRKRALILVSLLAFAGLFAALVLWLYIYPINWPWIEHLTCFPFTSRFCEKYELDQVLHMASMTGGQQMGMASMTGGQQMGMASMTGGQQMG
In short: (§1)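 Read-out is PE fluorescence by flow cytometry after two-step staining: antibody at 3 μg/ml for 1 hour on ice, then PE-labelled goat anti-mouse IgG F(ab′)2 (1:100) for 1 hour on ice.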

hiR2-FL-C593A-T7 = molecular target: T2, hiR2-FL-C593A-T7 (human, UniProt Q6PJF5 1-856); assay: as above
T2 construct: reduced surface expression reported
T2 sequence: T1 sequence with A505H, C593A
In short: as §1

B1: antibody 50 (antibody, V domains shown)
VH: QVQLQQSGAELVRPGASVKVSCKASGYAFSNYLIEWVKQRPGQGLEWIGVINPGSGFTKYNEKFKGKATLTADKSSSTAYMQLSSLTSEDSAVYFCARGLYRAMDYWGQGTSVTVSS
VL: DIQMTQSPASQSASLGESVTITCLASQTIGTWLAWYQQKPGKSPQLLIYAAASLADGVPSRFSGGGSGTKFSFKISSLQAEDFVNYYCQQIYSTPYTFGGGTKLEIK
notes: mouse IgG, kappa light chain; also called clone #50; purified antibody 50
With B1 the “loss of binding vs wild type” value (hiR2-FL-H505A-T7) was ≥ 30% and the “loss of binding vs wild type” value (hiR2-FL-C593A-T7) was ≥ 30%.
